# Measurements from patent publication US20240059769A1 (BIOLOJIC DESIGN, published 2024).
# B1: BDG38.131 (antibody, V domains shown)
# VH: QMQLVESGGGVVQPGRSLTLSCAASGFEFRTYGMHWVRQAPGKGLEWVAVIWDDGSNTHYADSVKGRFTITRDNSKNTLNLQMNSLRAEDTAVYYCVRAPQWYLTAEAFDLWGQGTMVTVSS
# VL: SYILTQPPSVSVAPGETATITCGGNLIGAKLVHWYQQKPGQAPVLVIYDDSDRPSRIPERFSGSNIGNTATLTISDVEEGDEADYYCQVWDYYSNTMVFGGGTKLTVL
# notes: IgG1
# B2: BDG38.139 (antibody, V domains shown)
# VH: QMQLVESGGGVVQPGRSLRLSCAASGFAFRTYGMHWVRQAPGKGLEWVAVIWDDGSNTHYADSVKGRFTITRDNSKNTLNLQMNSLRAEDTAVYYCVRAPQWYLSAEAFDLWGQGTMVTVSS
# VL: SYVLTQPPSVSVAPGETATITCGGNMIGAYLVHWYQQKPGQAPLLVIYDDVDRPARIPERFSGSNSGNTATLTISRVEAGDEADYYCQVWDHNSDHMVFGGGTKLTVL
# notes: IgG1
# B3: BDG38.140 (antibody, V domains shown)
# VH: QMQLVESGGGVVQPGRSLTLSCAASGFEFRTYGMHWVRQAPGKGLEWVGVIWDDGSNTHYADSVKGRFTITRDNSKNTLNLQMNSLRVEDTAVYYCARAPQWYLTAEAFDLWGQGTMVTVSS
# VL: SYILTQPPSVSVAPGETATITCGGNLIGAKLVHWYQQKPGQAPVLVIYDDSDRPSRIPERFSGSNIGNTATLTIEDVEAGDEADYYCQVWDYSANHMVFGGGTKLTVL
# notes: IgG1
# B4: BDG38.125 (antibody, V domains shown)
# VH: QMQLVESGGGVVQPGRSLRLSCAASGFEFRTYGMHWVRQAPGKGLEWVAVIWDDGSNTHYADSVKGRFTITRDNSKNTLNLQMNSLRAEDTAVYYCVRAPQWYLTAEAFDLWGQGTMVTVSS
# VL: SYVLTQPPSVSVAPGETATITCGGNLIGARLVHWYQQKPGQAPVLVIYDDSDRPSRIPERFSGSNIGNTATLTIERVEEGDEADYYCQVWDYSSDHMVFGGGTKLTVL
# notes: IgG1
# B5: BDG38.134 (antibody, V domains shown)
# VH: QMQLVESGGGVVQPGQSLRLSCAASGFEFRTYGMHWVRQAPGKGLEWLAVIWYDGSNTHYADSVKGRFTITRDNSKNTLNLQMNSLRAEDTAVYYCVRAPQWYNSAEAFDLWGQGTMVTVSS
# VL: SYVLTQPPSVSVAPGQTARITCGGNLIGARLVHWYQQKPGQAPVLVIYDDSDRPSHIPERFSGSNSGNTATLTISRVEAGDEADYYCQVWDYSADTMVFGGGTKLTVL
# notes: IgG1
# B6: BDG38.135 (antibody, V domains shown)
# VH: QMQLVESGGGVVQPGQSLRLSCAASGFAFRTYGMHWVRQAPGKGLEWLAVIWYDGSNTHYADSVKGRFTITRDNSKNTLNLQMNSLRAEDTAVYYCVRAPQWYNSAEAFDLWGQGTMVTVSS
# VL: SYVLTQPPSVSVAPGQTARITCGGNLIGARLVHWYQQKPGQAPVLVVYDDSDRPSHIPERFSGSNSGNTATLTISRVEAGDEADYYCQVWDHSADTMVFGGGTKLTVL
# Columns and labels:
# [1] = molecular target: T1, human TSLP (human, UniProt Q969D9 29-159); experiment: SPR
# T1 construct: also called hTSLP; rhTSLP
# [2] = molecular target: T2, recombinant human IL-13 (human, UniProt P35225 35-146); experiment: SPR
# T2 construct: also called rh-IL-13; hIL-13
# T2 sequence (P35225 35-146 limits assumed): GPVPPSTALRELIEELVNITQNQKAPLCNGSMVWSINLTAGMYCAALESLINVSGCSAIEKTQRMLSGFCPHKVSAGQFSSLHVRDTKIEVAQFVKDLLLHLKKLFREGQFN
# [3] = molecular target: T2, recombinant human IL-13; experiment: cell-based or functional assay
# [4] = molecular target: T2, recombinant human IL-13; experiment: cell-based or functional assay; remark: listed apart in the source
# [5] = molecular target: T3, hTSLP-His (human, UniProt Q969D9 29-159, limits assumed); experiment: cell-based or functional assay
# [6] = molecular target: T3, hTSLP-His; experiment: competition ELISA, 7 nM TSLP-His pre-incubated with antibody; competitor Tezepelumab coated
# [7] = molecular target: T4, cynomolgus monkey (cyno) TSLP (cynomolgus monkey, UniProt A0A7N9CAT7 29-159); experiment: SPR
# T4 construct: also called cTSLP; cynomolgus TSLP
# T4 sequence (A0A7N9CAT7 entry or part of it): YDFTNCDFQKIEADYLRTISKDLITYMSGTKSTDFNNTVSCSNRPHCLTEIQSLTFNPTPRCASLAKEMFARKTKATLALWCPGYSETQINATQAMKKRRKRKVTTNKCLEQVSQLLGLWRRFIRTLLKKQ
# [8] = molecular target: T5, recombinant cynomolgus monkey IL-13 (cynomolgus monkey, UniProt Q0PW92 21-132); experiment: SPR
# T5 construct: bought; also called rc-IL-13; cIL-13
# T5 sequence (Q0PW92 entry or part of it): as the sequence (P35225 35-146 limits assumed) above, with G1S, R10K, M42V, S67N, H83R, L100V counted along it
# [9] = molecular target: T1, human TSLP; experiment: cell-based or functional assay
binder,measurement,setting,value
B1,Kd,[1],0.0746 pM
same,koff,[1],2.85e-07 s⁻¹
same,kon,[1],3.82e+06 M⁻¹ s⁻¹
same,Kd,[2],179 pM
same,koff,[2],0.000356 s⁻¹
same,kon,[2],2e+06 M⁻¹ s⁻¹
same,IC50 CD23,[3],70 pM
same,"HEK-IL-13 [nM] (IC50, STAT6 reporter)",[4],0.0443 nM
B2,"IC50 [pM], STAT5 phosphorylation inhibition in MUTZ5 cells",[5],89 pM
same,IC50,[6],9570 pM
same,Kd,[7],2.39 pM
same,koff,[7],1.55e-05 s⁻¹
same,kon,[7],6.5e+06 M⁻¹ s⁻¹
same,Kd,[8],339 pM
same,koff,[8],0.0077 s⁻¹
same,kon,[8],2.27e+07 M⁻¹ s⁻¹
same,Kd,[1],3.27 pM
same,koff,[1],2.54e-05 s⁻¹
same,kon,[1],7.78e+06 M⁻¹ s⁻¹
same,Kd,[2],27.5 pM
same,koff,[2],0.000212 s⁻¹
same,kon,[2],7.71e+06 M⁻¹ s⁻¹
same,IC50 CD23,[3],12 pM
same,"HEK-IL-13 [nM] (IC50, STAT6 reporter)",[4],0.0464 nM
B3,"IC50 [pM], STAT5 phosphorylation inhibition in MUTZ5 cells",[5],2.21 pM
same,IC50,[6],5630 pM
same,Kd,[7],0.614 pM
same,koff,[7],2.78e-06 s⁻¹
same,kon,[7],4.53e+06 M⁻¹ s⁻¹
same,Kd,[8],23.8 pM
same,koff,[8],0.00131 s⁻¹
same,kon,[8],5.54e+07 M⁻¹ s⁻¹
same,Kd,[1],8.27 pM
same,koff,[1],2.79e-05 s⁻¹
same,kon,[1],3.38e+06 M⁻¹ s⁻¹
same,Kd,[2],34.4 pM
same,koff,[2],0.000168 s⁻¹
same,kon,[2],4.88e+06 M⁻¹ s⁻¹
same,IC50 CD23,[3],146 pM
same,"HEK-IL-13 [nM] (IC50, STAT6 reporter)",[4],0.043 nM
B4,IC50,[6],8440 pM
same,Kd,[7],45.2 pM
same,koff,[7],0.000119 s⁻¹
same,kon,[7],2.64e+06 M⁻¹ s⁻¹
same,Kd,[8],38.9 pM
same,koff,[8],0.00135 s⁻¹
same,kon,[8],3.46e+07 M⁻¹ s⁻¹
same,Kd,[1],25.5 pM
same,koff,[1],0.000121 s⁻¹
same,kon,[1],4.76e+06 M⁻¹ s⁻¹
same,Kd,[2],7.78 pM
same,koff,[2],4.76e-05 s⁻¹
same,kon,[2],6.12e+06 M⁻¹ s⁻¹
same,IC50 CD23,[3],52.7 pM
same,"HEK-IL-13 [nM] (IC50, STAT6 reporter)",[4],0.0562 nM
B5,"IC50 [pM], STAT5 phosphorylation inhibition in MUTZ5 cells",[5],32 pM
same,Kd,[1],8.58 pM
same,koff,[1],4.17e-05 s⁻¹
same,kon,[1],4.86e+06 M⁻¹ s⁻¹
same,Kd,[2],507 pM
same,koff,[2],0.00156 s⁻¹
same,kon,[2],3.07e+06 M⁻¹ s⁻¹
same,"HEK-IL-13 [nM] (IC50, STAT6 reporter)",[4],0.271 nM
B6,IC50 TARC,[9],804 pM
same,IC50 CD23,[3],408 pM
same,"HEK-IL-13 [nM] (IC50, STAT6 reporter)",[4],0.406 nM
